Measurements taken from publication PMC7078472.

Experiments:
Experiment in all cases: MYTH (membrane yeast two-hybrid) quantitative β-Gal activity assay
[1] = target: TbATPc prey for MYTH (T. brucei ATP synthase subunit c without MTS, NubG-HA; identical to TcATPc); conditions: yeast strain NMY51, n = 3, 6 colonies for each independent experiment, read off a plot
[2] = target: TbMCU bait for MYTH (without MTS, SUC signal sequence, Cub-LexA-VP16); conditions: yeast strain NMY51; n = 3; 6 colonies for each independent experiment; parent: est. 140; read off a plot
[3] = target: TbMCUc bait for MYTH (Cub-LexA-VP16); conditions: yeast strain NMY51; n = 3; 6 colonies for each independent experiment; parent: est. 140; read off a plot
[4] = target: TbMCU bait for MYTH (without MTS, SUC signal sequence, Cub-LexA-VP16); conditions: yeast strain NMY51; n = 3; 6 colonies for each independent experiment; parent: est. 140; read off a plot; remark: listed apart in the source
[5] = target: TbMCUd bait for MYTH (Cub-LexA-VP16); conditions: yeast strain NMY51; n = 3; 6 colonies for each independent experiment; parent: est. 180; read off a plot
[6] = target: T. cruzi MCU (TcMCU) bait for MYTH (Cub-LexA-VP16); conditions: yeast strain NMY51; n = 3; 6 colonies for each independent experiment; parent: est. 180; read off a plot
[7] = target: TbATPc prey for MYTH (T. brucei ATP synthase subunit c without MTS, NubG-HA; identical to TcATPc); conditions: yeast strain NMY51; n = 3; 6 colonies for each independent experiment; parent: est. 150; read off a plot

Work on “T. cruzi MCU (TcMCU) bait for MYTH (Cub-LexA-VP16)” yielded a response ([1]; parent: est. 180) of 32 units.

“T. cruzi MCU (TcMCU) bait for MYTH (Cub-LexA-VP16) Q208A; I211P; I212P; F217A” was tested, and the response ([1]; parent: est. 180) was 34 units.

With “TbATPc prey for MYTH (T. brucei ATP synthase subunit c without MTS, NubG-HA; identical to TcATPc) F98L; E102A; F107L; F113L” the response [2] was 88 units.

For “TbATPc prey for MYTH (T. brucei ATP synthase subunit c without MTS, NubG-HA; identical to TcATPc) F98L; F107L; F113L”, the response [2] was 130 units.

“TbATPc prey for MYTH (T. brucei ATP synthase subunit c without MTS, NubG-HA; identical to TcATPc) G64A; G66A; G68A; G70A” was tested, and the response [2] was 69 units.

In the case of “TbATPc prey for MYTH (T. brucei ATP synthase subunit c without MTS, NubG-HA; identical to TcATPc) G64L; G66L; G68L; G70L”, the response [3] is reported as 43 units, the response [4] is reported as 44 units and the response [5] is reported as 58 units. It also gave a response [6] of 58 units and a response [2] of 45 units.

Work on “TbMCU bait for MYTH (without MTS, SUC signal sequence, Cub-LexA-VP16)” yielded a response ([1]; parent: est. 140) of 26 units.

Substance “TbMCU bait for MYTH (without MTS, SUC signal sequence, Cub-LexA-VP16) Q213A; V216P; I217P; F222A” has a response ([1]; parent: est. 140) of 28 units and a response [7] of 27 units.

In the case of “TbMCU bait for MYTH (without MTS, SUC signal sequence, Cub-LexA-VP16) V216P; I217P”, the response [7] is reported as 34 units.

“TbMCU bait for MYTH (without MTS, SUC signal sequence, Cub-LexA-VP16) Y235A; F236A; T241E; Y248A” showed a response [7] of 120 units.

TbMCUc bait for MYTH (Cub-LexA-VP16) gave a response ([1]; parent: est. 140) of 29 units.

“TbMCUc bait for MYTH (Cub-LexA-VP16) Q161A; V164P; L165P; F170A” was tested, and the response ([1]; parent: est. 140) was 30 units.

For TbMCUd bait for MYTH (Cub-LexA-VP16), the response ([1]; parent: est. 180) was 27 units.

For “TbMCUd bait for MYTH (Cub-LexA-VP16) R123A; V126P; L127P; Y132A”, the response ([1]; parent: est. 180) was 34 units.
